This note sets out measurements from patent US10501734B2, “Compositions and methods of use thereof for making polypeptides with many instances of nonstandard amino acids” (Yale University, priority 2014, dated 2019).

Like-named read-outs stand apart in the source and are kept apart here.

Data set [1] deals with GFP(3TAG). It is filed as cell-based, E. coli. The conditions noted are these: chromosomally integrated AARS; pAcF. As for the experimental part: (§1) Liquid cell cultures of strains harboring chromosomally integrated OTSs and GFP reporter plasmids were inoculated from frozen stocks and grown to confluence overnight. Cultures were then inoculated at 1:20 dilution in LBmin media supplemented with 30 μg/ml kanamycin. Strains were inoculated by addition of 1:20 confluent cell culture (grown overnight) and allowed to grow at 34° C. to an OD600 of 0.5-0.8 in a shaking plate incubator at 650 r.p.m (˜3 h). AARS expression was then induced by the addition of 0.2% arabinose, GFP expression was induced by the addition of 60 ng/ul anhydrotetracycline, and the appropriate nsAA was added to a concentration of 1 mM. Cells were incubated at 34° C. for an additional 16 h. Liquid cell cultures of strains harboring plasmid-based OTSs and GFP or ELP-GFP reporter plasmids were inoculated from frozen stocks and grown to confluence overnight. Cultures were then inoculated at 1:20 dilution in 2×YT media supplemented with 30 μg/ml kanamycin and 20 μg/ml chloramphenicol. […] Cells were allowed to grow at 34° C. to an OD600 of 0.5-0.8 in a shaking plate incubator at 650 r.p.m (˜3 h), reporter protein expression was then induced by the addition of 60 ng/ul anhydrotetracycline, and cells were incubated at 34° C. for an additional 16 h.
(§2) For 384 well plate-based assays, fluorescence and OD600 were directly measured following expression. For 96 well plate-based assays, cells were centrifuged at 4,000 g for 4 min. Supernatant medium was removed and cells were resuspended in PBS. This process was repeated twice with PBS. GFP fluorescence was measured on a Biotek spectrophotometric plate reader using excitation and emission wavelengths of 395 and 509 nm, respectively). Fluorescence signals were normalized by dividing the fluorescence counts by the OD600 reading. The nsAAs used in this study were purchased from Sigma-Aldrich (St. Louis, Mo.), Chemlmpex (Wood Dale, Ill.), and Bachem (Torrance, Calif.). Solutions of nsAAs (50 mM) were made in water or 50 mM NaOH; these stock solutions were diluted 50- or 100-fold (to 1 mM final concentration) into medium used for bacterial growth.

The subject of data set [2] is GFP(3TAG). Nature of the data set: nsAA library screening, GFP(3TAG) fluorescence in 384 well plates. As to conditions: GFP(3TAG) production in the presence of pAcF, pAzF and 236 other nsAAs. It is filed as cell-based, E. coli. Here is the method: as §1
as §2, with “growth. […]” for “growth.”

Data set [3] can be described thus: ATP-PPi exchange assay (amino acid activation). Type of data set: biochemical. Here is the method: A 25 μl ATP-PPi exchange reaction contained the following components: 100 mM HEPES-KOH (pH 7.5), 30 mM KCl, 10 mM MgCl2, 2 mM DTT, 2 mM KF, 2 mM NaPPi, 5 mM ATP, […], 2 μCi/μl of […] (PerkinElmer) and varied concentrations of amino acids (0.25, 0.5, 1.25, 2.5, 5, 10, and 20 mM, respectively). The reactions were incubated at 37° C. Time points were taken at 2 minutes, 5 minutes and 10 minutes by plotting 1 μl aliquots from the reaction immediately to the PEI-cellulose plates (Merck). For each reaction, 1 μl of blank reaction mixture containing no enzymes was set as background. The reaction mixtures were separated on the plates in 1 M urea and 1 M monopotassium phosphate. The plates were then scanned in a Molecular Dynamics Storm 860 phosphorimager (Amersham Biosciences). The ratio of ATP to PPi was determined to monitor reaction progress. The kinetic constants were derived from plotting initial velocity of a series of reactions that contained varied concentrations of amino acids. The data were analyzed by GraFit 5.0 (Erithacus Software).

Another data set concerns tRNA. Nature of the data set: Aminoacylation assay (tRNA charging). Type of data set: biochemical. As for the experimental part:
Template plasmid containing tRNA gene was purified with the plasmid maxi kit (Qiagen), and 100 μg of plasmid was digested with BstNI (New England Biolabs). The BstNI digested template DNA was purified by phenol chloroform extraction, followed by ethanol precipitation and resolved in double distilled water. A His-tagged T7 RNA polymerase was purified over column of Ni-NTA resin according to manufacturer's instructions (Qiagen). The transcription reaction [40 mM Tris (pH 8); 4 mM each of UTP, CTP, GTP, and ATP at pH 7.0; 22 mM MgCl2; 2 mM spermidine; 10 mM DTT; 6 μg pyrophosphatase (Roche Applied Science); 60 μg/mL BstNI digested DNA template, approximately 0.2 mg/ml T7 RNA polymerase] was performed in 10 ml reaction volumes for overnight at 37° C. The tRNA was purified on 12% denaturing polyacrylamide gel containing 8 M urea and TBE buffer (90 mM Tris, 90 mM boric acid, 2 mM EDTA). UV shadowing illuminates the pure tRNA band, which is excised and extracted three times with 1M sodium acetate pH 5.3 at 4° C. The tRNA extractions were then ethanol precipitated, dissolved in RNase-free distilled water, pooled, and finally desalted using a Biospin 30 column (BioRad). The ratio of aminoacylated tRNA to total tRNA was determined to monitor reaction progress.
The tRNA was refolded by heating to 100° C. for 5 min and slow cooling to room temperature. At 65° C., MgC12, was added to a final concentration of 10 mM to aid folding. A His-tagged CCA adding enzyme was purified over column of Ni-NTA resin according to manufacturer's instructions (Qiagen). 16 μM folded tRNA in 50 mM Tris (pH 8.0), 20 mM MgCl2, 5 mM DTT and 50 μM NaPPi was incubated at room temperature for 1 hour with approximately 0.2 mg/ml CCA-adding enzyme and 1.6 μCi/μl of [α-32P]-labeled ATP (PerkinElmer). The sample was phenol/chloroform extracted and then passed over a Bio-spin 30 column (Bio-Rad) to remove excess ATP.
A 20 μl aminoacylation reaction contained the following components: 50 mM HEPES-KOH (pH 7.2), 25 mM KCl, 10 mM MgCl2, 5 mM DTT, 10 mM ATP, 25 μg/ml pyrophosphatase (Roche Applied Science), 2 mM amino acids. All plateau tRNA aminoacylation levels were determined at 37° C. according to the reactions conditions described above with 500 nM enzyme, 5 μM unlabeled tRNA plus 100 nM 32P-labeled tRNA. Time points were taken at 5 minutes, 20 minutes and 60 minutes by removing 2 μl aliquots from the reaction and immediately quenching the reaction into an ice-cold 3 μl quench solution [0.66 μg/μl nuclease P1 (Sigma) in 100 mM sodium citrate (pH 5.0)]. For each reaction, 2 μl of blank reaction mixture containing no enzymes was added to the quench solution as the start time point. The nuclease P1 mixture was then incubated at room temperature for 30 min and 1 μl aliquots were spotted on PEI-cellulose plates (Merck) and developed in running buffer containing 5% acetic acid and 100 mM ammonium acetate. Radioactive spots for AMP and AA-AMP (representing free tRNA and aminoacyl-tRNA, respectively) were separated and then visualized and quantified by phosphor imaging by a Molecular Dynamics Storm 860 phosphorimager (Amersham Biosciences). The ratio of aminoacylated tRNA to total tRNA was determined to monitor reaction progress.

The mark [4] stands for this setting: nsAA pAcF, relative to progenitor pAcFRS.
Where [5] appears, read: nsAA pAzF, relative to progenitor pAcFRS.
Setting [6] is: amino acid Tyrosine, relative to pAcFRS.

B1: pAcFRS.1: pAcFRS variant A167D, SEQ ID NO: 2 (protein)
chain: MDEFEMIKRNTSEIISEEELREVLKKDEKSALIGFEPSGKIHLGHYLQIKKMIDLQNAGFDIIILLADLHAYLNQKGELDEIRKIGDYNKKVFEAMGLKAKYVYGSEFQLDKDYTLNVYRLALKTTLKRARRSMELIAREDENPKVAEVIYPIMQVNGCHYRGVDVDVGGMEQRKIHMLARELLPKKVVCIHNPVLTGLDGEGKMSSSKGNFIAVDDSPEEIRAKIKKAYCPAGVVEGNPIMEIAKYFLEYPLTIKRPEKFGGDLTVNSYEELESLFKNKELHPMRLKNAVAEELIKILEPIRKRL
By Km is commonly meant the substrate concentration at which the rate is half of its maximum. Turning to B1, the “higher GFP(3TAG) production compared with the progenitor enzyme” value in the data set with GFP(3TAG) [1] is around 8 fold. Further, the “nsAA specificity (polyspecificity)” value in the data set with GFP(3TAG) [2] is recorded as “polyspecifity for at least pAcF, pAzF, StyA, 4IF, 4BrF, 4ClF, 4MeF, 4Cf3F, MeY, 4NO2F, 4BuF, BuY, 2NaA, PheF”. In addition, the Michaelis-Menten constant (Km) stood at 2160 ± 720 µM in data set [3] (nsAA pAcF), 1740 ± 390 µM in data set [3] (nsAA pAzF), 36 ± 7 µM in the data set with tRNA (nsAA pAcF) and 31 ± 9 µM with tRNA (nsAA pAzF). In addition, the kcat was 6.84 ± 0.64 ×10^−2 s^−1 in data set [3] (nsAA pAcF), 3.50 ± 0.20 ×10^−2 s^−1 in data set [3] (nsAA pAzF), 1.21 ± 0.24 ×10^−3 s^−1 with tRNA (nsAA pAcF) and 0.65 ± 0.20 ×10^−3 s^−1 in the data set on tRNA (nsAA pAzF). The Fold change in data set [3] (setting [4]) turned out to be 4.64; in data set [3] (setting [5]), 1.37; in the data set with tRNA (setting [4]) it was 4.60; with tRNA (setting [5]), 3.38.

B2: WTmjYRS: wild-type M. jannaschii TyrRS, the parent AARS of pAcFRS (protein, UniProt Q57834 1-306, looked up)
Tyrosine--tRNA ligase: MDEFEMIKRNTSEIISEEELREVLKKDEKSAYIGFEPSGKIHLGHYLQIKKMIDLQNAGFDIIILLADLHAYLNQKGELDEIRKIGDYNKKVFEAMGLKAKYVYGSEFQLDKDYTLNVYRLALKTTLKRARRSMELIAREDENPKVAEVIYPIMQVNDIHYLGVDVAVGGMEQRKIHMLARELLPKKVVCIHNPVLTGLDGEGKMSSSKGNFIAVDDSPEEIRAKIKKAYCPAGVVEGNPIMEIAKYFLEYPLTIKRPEKFGGDLTVNSYEELESLFKNKELHPMDLKNAVAEELIKILEPIRKRL
On to B2, for which the results for the kcat (in data set [3] (amino acid Tyrosine); in the data set on tRNA (amino acid Tyrosine)) were 52.2 ± 4.1 ×10^−2 s^−1 and 130 ± 22 ×10^−3 s^−1, respectively. Moreover, the Km in data set [3] (amino acid Tyrosine, read-out: Km, nsAA) turned out to be 76 ± 30 µM; in the data set with tRNA (amino acid Tyrosine) it was 23 ± 3 µM. Moreover, the Fold change was 1007 in data set [3] (setting [6]) and 774 in the data set on tRNA (setting [6]).

B3: pAcFRS.t1: pAcFRS variant R257G, SEQ ID NO: 3 (protein)
chain: MDEFEMIKRNTSEIISEEELREVLKKDEKSALIGFEPSGKIHLGHYLQIKKMIDLQNAGFDIIILLADLHAYLNQKGELDEIRKIGDYNKKVFEAMGLKAKYVYGSEFQLDKDYTLNVYRLALKTTLKRARRSMELIAREDENPKVAEVIYPIMQVNGCHYRGVDVAVGGMEQRKIHMLARELLPKKVVCIHNPVLTGLDGEGKMSSSKGNFIAVDDSPEEIRAKIKKAYCPAGVVEGNPIMEIAKYFLEYPLTIKGPEKFGGDLTVNSYEELESLFKNKELHPMRLKNAVAEELIKILEPIRKRL
In the case of B3, the “higher GFP(3TAG) production compared with the progenitor enzyme” value in the data set on GFP(3TAG) [1] was around 1.5 fold. For the same molecule, the “nsAA specificity (polyspecificity)” value in the data set on GFP(3TAG) [2] is recorded as “polyspecifity for at least pAc.F, pAzF, StyA”. Further, the Km worked out at 9170 ± 3670 µM in data set [3] (nsAA pAcF) and 17 ± 3 µM in the data set on tRNA (nsAA pAcF). In addition, the kcat was 6.92 ± 1.27 ×10^−2 s^−1 in data set [3] (nsAA pAcF) and 0.22 ± 0.02 ×10^−3 s^−1 with tRNA (nsAA pAcF). Also, the Fold change in data set [3] (setting [4]) turned out to be 1.11; with tRNA (setting [4]) it was 1.77.

B4: pAcFRS.t2: pAcFRS variant R257C, F261E, SEQ ID NO: 4 (protein)
chain: MDEFEMIKRNTSEIISEEELREVLKKDEKSALIGFEPSGKIHLGHYLQIKKMIDLQNAGFDIIILLADLHAYLNQKGELDEIRKIGDYNKKVFEAMGLKAKYVYGSEFQLDKDYTLNVYRLALKTTLKRARRSMELIAREDENPKVAEVIYPIMQVNGCHYRGVDVAVGGMEQRKIHMLARELLPKKVVCIHNPVLTGLDGEGKMSSSKGNFIAVDDSPEEIRAKIKKAYCPAGVVEGNPIMEIAKYFLEYPLTIKCPEKEGGDLTVNSYEELESLFKNKELHPMRLKNAVAEELIKILEPIRKRL
Consider B4, for which the “higher GFP(3TAG) production compared with the progenitor enzyme” value in the data set with GFP(3TAG) [1] is on record as around 1.5 fold. Moreover, the “nsAA specificity (polyspecificity)” value in the data set with GFP(3TAG) [2] is recorded as “polyspecifity for at least pAcF, pAzF, StyA”. Further, the Km is 8590 ± 3230 µM in data set [3] (nsAA pAcF) and 29 ± 3 µM in the data set with tRNA (nsAA pAcF). For the same molecule, the kcat in data set [3] (nsAA pAcF) was 6.67 ± 1.27 ×10^−2 s^−1; in the data set with tRNA (nsAA pAcF) it was 0.27 ± 0.07 ×10^−3 s^−1. In addition, the Fold change in data set [3] (setting [4]) came out at 1.14; in the data set with tRNA (setting [4]) it was 1.27.
